Laboratory results published in patent US20180016325.

Assays:
[1] = target: thioFAB S4497-MC-GGAFAGGG-(pipBOR)
[2] = target: thioFAB 4497 MP-LAFAA-QSY7
[3] = target: thioFAB 4497 MP-LAFGA-QSY7
[4] = target: MP-LAFG-PABC-(piperazinoBOR) LA-104 as antibody conjugate AAC-193

Protein	cleavage of the linker (LC-MS) [1]	Percent cleavage pH 7.2 [2] [%]	Percent cleavage pH 7.2 [3] [%]	Percent cleavage pH 5 [4] [%]	Percent cleavage pH 7.2 [4] [%]	percent cleavage at pH 7.2 [4]
staphopain B (protein) DQVQYENTLKNFKIREQQFDNSWCAGFSMAALLNATKNTDTYNAHDIMRTLYPEVSEQDLPNCATFPNQMIEYGKSQGRDIHYQEGVPSYNQVDQLTKDNVGIMILAQSVSQNPNDPHLGHALAVVGNAKINDQEKLIYWNPWDTELSIQDADSSLLHLSFNRDYNWYGSMIGY	Staphopain B was found to cleave the linker at the same site as the active protease purified from Wood46 supernatant	100	100	100	100	
staphopain A (protein) YNEQYVNKLENFKIRETQGNNGWCAGYTMSALLNATYNTNKYHAEAVMRFLHPNLQGQQFQFTGLTPREMIYFEQTQGRSPQLLNRMTTYNEVDNLTKNNKGIAILGSRVESRNGMHAGHAMAVVGNAKLNNGQEVIIIWNPWDNGFMTQDAKNNVIPVSNGDHYQWYSSIYGY				100	46	Staphopain A showed 100% cleavage at pH5 and 64% cleavage at pH 7.2
